# What was measured:
# HuD (GST-HuD) [1] = target: T1, HuD (GST-HuD) (Rattus norvegicus (rat), UniProt O09032 1-385); test: EMSA; REMSA: 50 mM Tris-HCl pH 7.0, 150 mM NaCl, 5 mM MgCl2, 0.2 mM DTT, 0.25 mg/ml tRNA, 0.25 mg/ml BSA, room temperature 20 min; 20 fmol RNA and 3 pmol protein in 20 ul; conditions: protein: recombinant, tags: GST N-terminal (pGEX-2T), label: biotin at both ends
# ZBP1 (His-ZBP1) [2] = target: T2, ZBP1 (His-ZBP1) (Rattus norvegicus (rat), UniProt Q8CGX0 1-577); test: as above; conditions: protein: recombinant, tags: 6xHis (replaces GST in pGEX), label: biotin at both ends
# ZBP1 (His-ZBP1) [3] = target: T2, ZBP1 (His-ZBP1); test: EMSA; apparent Kd; REMSA: 50 mM Tris-HCl pH 7.0, 150 mM NaCl, 5 mM MgCl2, 0.2 mM DTT, 0.25 mg/ml tRNA, 0.25 mg/ml BSA, room temperature 20 min; 20 fmol RNA and 3 pmol protein in 20 ul; conditions: protein: recombinant, tags: 6xHis (replaces GST in pGEX), label: biotin at both ends
# HuD (GST-HuD) [4] = target: T1, HuD (GST-HuD); test: competition EMSA; HuD displaces ZBP1 (4 pmol) from zipcode RNA; REMSA: 50 mM Tris-HCl pH 7.0, 150 mM NaCl, 5 mM MgCl2, 0.2 mM DTT, 0.25 mg/ml tRNA, 0.25 mg/ml BSA, room temperature 20 min; 20 fmol RNA and 3 pmol protein in 20 ul; conditions: protein: recombinant; tags: GST N-terminal (pGEX-2T); label: biotin at both ends; stem-loop, 16-nt terminal loop (predicted)
# HuD (GST-HuD) [5] = target: T1, HuD (GST-HuD); test: EMSA; no difference from wild type; REMSA: 50 mM Tris-HCl pH 7.0, 150 mM NaCl, 5 mM MgCl2, 0.2 mM DTT, 0.25 mg/ml tRNA, 0.25 mg/ml BSA, room temperature 20 min; 20 fmol RNA and 3 pmol protein in 20 ul; conditions: protein: recombinant; tags: GST N-terminal (pGEX-2T); label: biotin at both ends; disrupted structure (predicted)
# [6] = stem-loop, 10-nt terminal loop (predicted)
# T2 sequence (Q8CGX0 whole entry): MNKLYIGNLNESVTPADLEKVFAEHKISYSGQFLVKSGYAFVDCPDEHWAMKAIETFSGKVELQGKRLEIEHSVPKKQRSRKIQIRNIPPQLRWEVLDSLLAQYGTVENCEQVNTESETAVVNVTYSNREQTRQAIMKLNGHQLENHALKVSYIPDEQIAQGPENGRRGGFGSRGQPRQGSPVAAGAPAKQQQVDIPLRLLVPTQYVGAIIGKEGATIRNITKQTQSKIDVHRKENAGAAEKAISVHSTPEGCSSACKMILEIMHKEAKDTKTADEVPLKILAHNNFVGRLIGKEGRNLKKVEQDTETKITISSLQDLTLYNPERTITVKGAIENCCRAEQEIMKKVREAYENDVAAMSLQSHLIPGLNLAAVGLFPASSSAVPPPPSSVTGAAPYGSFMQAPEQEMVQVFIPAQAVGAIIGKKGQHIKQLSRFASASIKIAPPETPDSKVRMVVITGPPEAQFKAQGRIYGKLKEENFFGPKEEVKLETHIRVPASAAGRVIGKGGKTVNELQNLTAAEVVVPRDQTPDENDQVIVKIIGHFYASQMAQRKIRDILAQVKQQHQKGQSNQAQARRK
# T1 sequence (O09032 whole entry): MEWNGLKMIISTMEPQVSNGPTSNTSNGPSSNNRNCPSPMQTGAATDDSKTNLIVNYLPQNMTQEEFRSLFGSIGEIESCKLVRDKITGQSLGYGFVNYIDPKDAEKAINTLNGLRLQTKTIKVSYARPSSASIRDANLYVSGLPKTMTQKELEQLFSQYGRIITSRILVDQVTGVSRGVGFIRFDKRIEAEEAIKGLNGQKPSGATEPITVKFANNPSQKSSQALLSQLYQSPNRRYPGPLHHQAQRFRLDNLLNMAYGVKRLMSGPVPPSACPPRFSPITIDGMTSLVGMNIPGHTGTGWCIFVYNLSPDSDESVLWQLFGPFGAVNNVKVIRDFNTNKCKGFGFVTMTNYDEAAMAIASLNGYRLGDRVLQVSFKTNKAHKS
binder,measurement,setting,value
"CGGACUGUUACUGAGCUGCGUUUUUUUCUUUGACAAAACCUAACUUGC (structured_RNA, ACACCC deleted) [delta-ACACCC zipcode]",binding result,HuD (GST-HuD) [1]; [6],binds
same,binding result,ZBP1 (His-ZBP1) [2]; [6],binds
chicken zipcode (structured_RNA) RNA: ACCGGACUGUUACCAACACCCACACCCCUGUGAUGAAACAAAACCCAUAAAUGC,Kd,ZBP1 (His-ZBP1) [3],78.8 nM
same,binding result,HuD (GST-HuD) [1],no binding
"WT zipcode (rat, 54 nt) (structured_RNA) RNA: CGGACUGUUACUGAGCUGCGUUUUACACCCUUUCUUUGACAAAACCUAACUUGC",Kd,"ZBP1 (His-ZBP1) [3]; stem-loop, 16-nt terminal loop (predicted)",28.1 nM
same,IC50,HuD (GST-HuD) [4],171 nM
"AAMTCG zipcode (structure-disrupted mutant) (structured_RNA, structure disrupted; ACACCC and U-rich motifs intact) RNA: CGGACUGUUCCUGGGCUGCGUUUUACACCCUUUCUUUGACAAAACCUAACUUGC",Kd,ZBP1 (His-ZBP1) [3]; disrupted structure (predicted),315 nM
same,binding result,HuD (GST-HuD) [5],binds
"CGGACUGUUACUGAGCUGCGGACAAAACCUAACUUGC (structured_RNA, ACACCC and UUUCUUU deleted) [delta(ACACCC/U-rich) zipcode]",binding result,HuD (GST-HuD) [1]; altered structure (predicted),no binding
same,binding result,ZBP1 (His-ZBP1) [2]; altered structure (predicted),no binding
